Four molecules from patent publication US20240209341A1 (University of California, published 2024) can be followed below.

In experiment [1] the target is T1, recombinant TLR4 ectodomain, His-tagged (Sino Biological) (human, UniProt O00206 24-631).
T1 construct: extracellular domain; Bought protein; also called eTLR4; eTLR4-His; not shown: His-tag
Kind of experiment: pull-down with anti-AIBP antibody, western blot with anti-his antibody. On the procedure:
(§1) Co-immunoprecipitation assays for TLR4 binding. Pull down assay of eTLR4 and wtAIBP or mutAIBP in test tube was performed by mixing 1 μg of eTLR4 (Sino Biological) and AIBP in PBS containing 0.5% Triton X-100 and incubating for 1 hour at room temperature. Samples were precleared by adding Protein A/G Sepharose beads at room temperature for 30 min, followed by addition of 1 μg of BE-1 monoclonal anti-AIBP antibody and incubation for 2 hours. Protein A/G Sepharose beads were added and incubated for an additional one hour, followed by 5 washes with PBS containing 0.5% Triton X-100 and immunoblot of samples.
A pulldown assay was performed using compounds as provided herein. Compounds 3, 7, 8 or 9 and other constructs described in FIGS. 13 and 14 were purified from either a baculovirus (BD Bioscience) or CHO (ExpiCHO, Expression Systems, ThermoFisher) cell expression system and incubated with TLR4 protein (Sino biological). Pull-down was performed with anti-AIBP antibody described. Bound TLR4 to AIBP was detected by western blot with an anti-his antibody (both modified AIBP and TLR4 have his-tag). Detailed experimental information is provided in example 1 as to pull down method.
Background: Immunoblotting shows a protein as a band on a membrane.

Experiment [2] concerns the target T1, recombinant TLR4 ectodomain, His-tagged …. Kind of experiment: test-tube co-IP with anti-TLR4 antibody, immunoblot with anti-His antibody. The text has this:
FIG. 9: Identifies sequence motifs that contribute to AIBP binding to TLR4: FIG. 9. Identification of the domain in the AIBP molecule responsible for TLR4 binding. A, Human AIBP: signal peptide (aa 1-24), previously uncharacterized N-terminal domain (aa 25-51), and YjeF_N domain (aa 52-288). B, Flag-tagged deletion mutants of human AIBP were co-expressed in HEK293 cells with the Flag-tagged TLR4 ectodomain (eTLR4). Cell lysates were immunoprecipitated (IP) with an anti-TLR4 antibody and immunoblotted (IB) with an anti-Flag antibody. C, His-tagged human (hu), mouse (mo) and zebrafish (zf) AIBP, all lacking the signal peptide, expressed in a baculovirus/insect cell system, were combined in a test-tube with eTLR4-His, followed by IP with an anti-TLR4 antibody and IB with an anti-His antibody. D-H, Binding of His-tagged wild type (wt, 25-288 aa) and the deletion mutant (mut, 52-288 aa) human AIBP to eTLR4, APOA1 and microglia. IP of eTLR4 and wtAIBP or mutAIBP in a test tube with an anti-AIBP antibody; blot and quantification from 3 independent experiments (D). ELISA with plates coated with eTLR4 and incubated with wtAIBP or mutAIBP (n=3) (E). ELISA with plates coated with BSA, wtAIBP or mutAIBP and incubated with APOA1 (F). […]

Experiment [3] deals with T2, human APOA1 (human, UniProt P02647 25-267).
T2 construct: also called ApoA-I
Kind of experiment: ELISA, AIBP-coated plates incubated with 5 µg/ml human APOA1. On the procedure:
ELISA binding assays. To assess AIBP-TLR4 binding, 96-well plates were coated with 5 μg/ml of eTLR4, washed three times with PBS containing 0.05% Tween-20, blocked with PBS containing 1% BSA, and incubated with wtAIBP or mutAIBP, followed by 2 μg/ml of a biotinylated BE-1 anti-AIBP monoclonal antibody. To assess AIBP-APOA1 binding, plates were coated with BSA, wtAIBP or mutAIBP, washed, blocked, and incubated with 5 μg/ml of human APOA1 (a gift from Dmitri Sviridov, Baker Heart and Diabetes Institute, Melbourne, Australia), followed by a biotinylated anti-APOA1 antibody (Academy Bio-Medical Company, RRID:AB_1238781). In both assays, neutravidin-AP was added and incubated for 45 minutes at room temperature, followed by LumiPhos 530 (Lumigen) for 90 min, and luminescence was measured using a luminescence plate reader (BioTek, Winooski, Vermont).
(§2) FIG. 9: Identifies sequence motifs that contribute to AIBP binding to TLR4: FIG. 9. Identification of the domain in the AIBP molecule responsible for TLR4 binding. A, Human AIBP: signal peptide (aa 1-24), previously uncharacterized N-terminal domain (aa 25-51), and YjeF_N domain (aa 52-288). […] IP of eTLR4 and wtAIBP or mutAIBP in a test tube with an anti-AIBP antibody; blot and quantification from 3 independent experiments (D). […]
(In general: ELISA stands for enzyme-linked immunosorbent assay.)

Experiment [4] deals with T1, recombinant TLR4 ectodomain, His-tagged …. Kind of experiment: pull-down with BE-1 anti-AIBP antibody, immunoblot. As for the experimental part: as §1
as §2, with “52-288). B, Flag-tagged deletion mutants of human AIBP were co-expressed in HEK293 cells with the Flag-tagged TLR4 ectodomain (eTLR4). Cell lysates were immunoprecipitated (IP) with an anti-TLR4 antibody and immunoblotted (IB) with an anti-Flag antibody.” for “52-288).”

The target is the same in experiment [5]. Kind of experiment: co-immunoprecipitation with recombinant ectodomain of TLR4; proteins from E. coli.

T1 sequence (O00206 24-631): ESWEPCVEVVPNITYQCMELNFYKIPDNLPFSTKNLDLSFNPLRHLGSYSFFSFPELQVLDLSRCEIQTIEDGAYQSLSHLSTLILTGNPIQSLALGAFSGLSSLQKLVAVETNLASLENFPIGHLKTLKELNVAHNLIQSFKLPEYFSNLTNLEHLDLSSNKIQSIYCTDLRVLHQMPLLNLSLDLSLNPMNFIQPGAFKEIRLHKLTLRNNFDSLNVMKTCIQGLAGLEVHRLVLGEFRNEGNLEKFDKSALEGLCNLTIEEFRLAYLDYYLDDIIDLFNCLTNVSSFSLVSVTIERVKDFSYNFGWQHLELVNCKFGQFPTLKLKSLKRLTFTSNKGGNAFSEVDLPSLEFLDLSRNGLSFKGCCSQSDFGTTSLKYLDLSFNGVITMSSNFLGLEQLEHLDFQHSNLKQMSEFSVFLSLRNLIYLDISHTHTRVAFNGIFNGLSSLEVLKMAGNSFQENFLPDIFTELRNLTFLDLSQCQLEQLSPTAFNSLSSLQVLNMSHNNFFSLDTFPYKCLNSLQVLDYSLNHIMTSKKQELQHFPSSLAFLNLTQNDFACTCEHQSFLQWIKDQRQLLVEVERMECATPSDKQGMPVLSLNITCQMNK
T2 sequence (P02647 25-267 limits assumed): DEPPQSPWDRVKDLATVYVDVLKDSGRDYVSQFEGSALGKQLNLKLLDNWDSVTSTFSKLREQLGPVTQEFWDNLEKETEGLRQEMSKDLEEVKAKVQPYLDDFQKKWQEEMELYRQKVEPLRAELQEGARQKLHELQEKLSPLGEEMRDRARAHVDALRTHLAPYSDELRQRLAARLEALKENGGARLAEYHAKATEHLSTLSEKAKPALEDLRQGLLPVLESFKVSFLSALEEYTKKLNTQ

B1: cleaved His-d24 AIBP (other)
chain: GSPGLDGICSRQTIACRSGPTWWGPQRLNSGGRWDSEVMASTVVKYLSQEEAQAVDQELFNEYQFSVDQLMELAGLSCATAIAKAYPPTSMSRSPPTVLVICGPGNNGGDGLVCARHLKLFGYEPTIYYPKRPNKPLFTALVTQCQKMDIPFLGEMPAEPMTIDELYELVVDAIFGFSFKGDVREPFHSILSVLKGLTVPIASIDIPSGWDVEKGNAGGIQPDLLISLTAPKKSATQFTGRYHYLGGRFVPPALEKKYQLNLPPYPDTECVYRLQ
notes: also called putative cleavage product of His-d24 AIBP
Consider B1, for which the binding result in experiment [1] is “no binding”.

B2: His-tagged zebrafish (zf) AIBP lacking the signal peptide (other, UniProt Q6DHK1 29-283, looked up)
chain: SSAASNIYSKHLTHRPTCTMANTGVKYLGQEEAQQIDEELFSDFSFSVDQLMELAGLSCATAVAKGYPVTSLLKSPARVLVICGPGNNGGDGLVCARHLKLFGYEPSVLYPKRPNKQLFQNLSIQCQKMEIPFLTEMPEADLIDEAYSLVVDAIFGFSFKGAVREPFGEILSQLKKITVPIASVDIPSGWDVEKGCPDGIQPDMLISLTAPKKSAALFKGRFHFLGGRFVPPVLEQKYQLNLPQYPGTECVFQLN
notes: mature; also called zebrafish wild type AIBP; not shown: N-terminal His-tag of the pAcHLT-C vector
For B2, in experiment [2], the binding result is “no binding”.

B3: His-tagged deletion mutant (mut, 52-288 aa) human AIBP (other)
chain: MASTVVKYLSQEEAQAVDQELFNEYQFSVDQLMELAGLSCATAIAKAYPPTSMSRSPPTVLVICGPGNNGGDGLVCARHLKLFGYEPTIYYPKRPNKPLFTALVTQCQKMDIPFLGEMPAEPMTIDELYELVVDAIFGFSFKGDVREPFHSILSVLKGLTVPIASIDIPSGWDVEKGNAGGIQPDLLISLTAPKKSATQFTGRYHYLGGRFVPPALEKKYQLNLPPYPDTECVYRLQ
notes: Baculovirus/insect cell expression, pAcHLT-C vector; also called mutAIBP; mut AIBP; not shown: N-terminal His-tag of the pAcHLT-C vector
On to B3, for which the binding result was “binds” in experiment [3] and “no binding” in experiment [4].

B4: d51 AIBP-his (expressed in E. coli) (other)
chain: MASTVVKYLSQEEAQAVDQELFNEYQFSVDQLMELAGLSCATAIAKAYPPTSMSRSPPTVLVICGPGNNGGDGLVCARHLKLFGYEPTIYYPKRPNKPLFTALVTQCQKMDIPFLGEMPAEPMTIDELYELVVDAIFGFSFKGDVREPFHSILSVLKGLTVPIASIDIPSGWDVEKGNAGGIQPDLLISLTAPKKSATQFTGRYHYLGGRFVPPALEKKYQLNLPPYPDTECVYRLQ
notes: not shown: his tag, read from the name as C-terminal
Consider B4, for which the binding result in experiment [5] was “no binding”.
